The source of these data is article PMC8448823, “Structural basis of RNA polymerase inhibition by viral and host factors” (Nature Communications, 2021).

Holding throughout (conditions): both partners purified
Assay [1] deals with T1, Rpo1′ subunit of Sulfolobus acidocaldarius RNA polymerase (Sulfolobus acidocaldarius, UniProt P11512 1-880).
T1 construct: Rpo1′, subunit of the Sulfolobus acidocaldarius RNA polymerase (clamp, rim helices, bridge helix); Stood within the whole 13-subunit RNAP; source: part of the RNAP purified from Saci strain MW001
Kind of assay: cryo-EM structure; apo-RNAP cross-linked with 2 mM BS3 for 5 min at 65 °C; 20 mM Hepes pH 7.0, 200 mM NaCl, 5 mM MgCl2; map at 2.88 Å.

The target in assay [2] is T1, Rpo1′ subunit of Sulfolobus …. Kind of assay: cryo-EM structure; RNAP incubated with a 10-fold excess of RIP for 5 min at 65 °C, then cross-linked with 2 mM BS3; 20 mM Hepes pH 7.0, 200 mM NaCl, 5 mM MgCl2; map at 3.27 Å.
Assay [3] deals with T2, Rpo2 subunit of Sulfolobus acidocaldarius RNA polymerase (Sulfolobus acidocaldarius, UniProt P11513 1-1126).
T2 construct: Rpo2, subunit of the Sulfolobus acidocaldarius RNA polymerase (protrusion and lobe); Stood within the whole 13-subunit RNAP; source: part of the RNAP purified from Saci strain MW001
Described as above.

In assay [4] the target is T1, Rpo1′ subunit of Sulfolobus …. The experiment in a line: cryo-EM structure; RNAP incubated and cross-linked (BS3, 65 °C) in presence of a 20 molar fold excess of TFS4; map at 2.61 Å.
Assay [5] has as its target T2, Rpo2 subunit of Sulfolobus …. The description is as above.
Assay [6] concerns the target T3, Rpo1″ subunit of Sulfolobus acidocaldarius RNA polymerase (Sulfolobus acidocaldarius, UniProt P11514 1-393).
T3 construct: Rpo1″, subunit of the Sulfolobus acidocaldarius RNA polymerase (upper jaw, trigger loop); Stood within the whole 13-subunit RNAP; source: part of the RNAP purified from Saci strain MW001
The assay is described as above.

T1 sequence (P11512 whole entry): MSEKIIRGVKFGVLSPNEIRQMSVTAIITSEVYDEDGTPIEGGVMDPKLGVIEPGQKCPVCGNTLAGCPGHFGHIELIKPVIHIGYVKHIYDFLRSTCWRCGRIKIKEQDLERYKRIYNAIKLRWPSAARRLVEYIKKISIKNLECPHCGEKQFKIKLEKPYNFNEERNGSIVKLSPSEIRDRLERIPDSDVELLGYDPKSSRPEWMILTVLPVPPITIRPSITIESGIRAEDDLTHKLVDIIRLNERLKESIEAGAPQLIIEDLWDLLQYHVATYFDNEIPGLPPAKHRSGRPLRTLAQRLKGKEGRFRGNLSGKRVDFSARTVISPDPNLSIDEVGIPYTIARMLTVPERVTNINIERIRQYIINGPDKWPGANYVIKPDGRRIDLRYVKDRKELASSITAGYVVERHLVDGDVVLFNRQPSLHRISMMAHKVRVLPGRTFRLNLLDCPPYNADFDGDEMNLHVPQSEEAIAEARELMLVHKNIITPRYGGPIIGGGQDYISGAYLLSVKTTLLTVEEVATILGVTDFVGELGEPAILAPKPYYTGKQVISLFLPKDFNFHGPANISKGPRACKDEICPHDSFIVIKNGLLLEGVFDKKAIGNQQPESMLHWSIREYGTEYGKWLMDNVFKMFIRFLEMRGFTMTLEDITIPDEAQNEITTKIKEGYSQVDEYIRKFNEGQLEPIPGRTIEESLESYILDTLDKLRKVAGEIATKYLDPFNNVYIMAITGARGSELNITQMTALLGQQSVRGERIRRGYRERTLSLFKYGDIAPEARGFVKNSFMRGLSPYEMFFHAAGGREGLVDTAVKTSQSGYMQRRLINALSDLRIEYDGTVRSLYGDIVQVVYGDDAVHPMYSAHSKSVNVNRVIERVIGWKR
T2 sequence (P11513 whole entry): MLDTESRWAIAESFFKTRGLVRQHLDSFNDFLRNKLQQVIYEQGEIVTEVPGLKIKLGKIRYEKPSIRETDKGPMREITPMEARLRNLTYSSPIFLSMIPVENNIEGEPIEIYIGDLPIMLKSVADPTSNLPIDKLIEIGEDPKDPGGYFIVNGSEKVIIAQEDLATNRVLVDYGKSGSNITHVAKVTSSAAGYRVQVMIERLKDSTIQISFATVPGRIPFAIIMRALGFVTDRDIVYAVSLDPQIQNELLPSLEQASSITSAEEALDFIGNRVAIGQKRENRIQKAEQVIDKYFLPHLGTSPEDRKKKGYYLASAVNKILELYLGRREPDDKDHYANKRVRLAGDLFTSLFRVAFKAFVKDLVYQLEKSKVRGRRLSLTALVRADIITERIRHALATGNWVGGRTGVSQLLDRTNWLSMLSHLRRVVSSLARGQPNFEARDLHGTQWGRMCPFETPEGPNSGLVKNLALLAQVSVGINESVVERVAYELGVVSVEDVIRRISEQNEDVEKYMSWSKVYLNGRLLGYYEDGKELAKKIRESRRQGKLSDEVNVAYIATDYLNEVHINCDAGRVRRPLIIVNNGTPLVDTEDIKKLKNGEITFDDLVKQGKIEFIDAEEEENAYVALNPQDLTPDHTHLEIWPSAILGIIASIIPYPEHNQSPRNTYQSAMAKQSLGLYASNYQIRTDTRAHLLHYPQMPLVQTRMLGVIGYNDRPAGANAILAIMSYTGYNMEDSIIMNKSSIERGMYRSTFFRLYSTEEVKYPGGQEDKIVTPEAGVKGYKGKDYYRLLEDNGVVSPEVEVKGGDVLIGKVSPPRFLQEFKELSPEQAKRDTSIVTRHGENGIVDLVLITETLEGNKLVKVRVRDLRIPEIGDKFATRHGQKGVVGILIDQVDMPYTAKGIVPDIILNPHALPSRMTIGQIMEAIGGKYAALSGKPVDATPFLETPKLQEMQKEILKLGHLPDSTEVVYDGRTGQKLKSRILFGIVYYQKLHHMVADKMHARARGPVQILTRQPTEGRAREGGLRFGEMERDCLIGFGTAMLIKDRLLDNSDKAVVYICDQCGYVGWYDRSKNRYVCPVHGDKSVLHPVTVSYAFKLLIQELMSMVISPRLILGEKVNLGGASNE
T3 sequence (P11514 whole entry): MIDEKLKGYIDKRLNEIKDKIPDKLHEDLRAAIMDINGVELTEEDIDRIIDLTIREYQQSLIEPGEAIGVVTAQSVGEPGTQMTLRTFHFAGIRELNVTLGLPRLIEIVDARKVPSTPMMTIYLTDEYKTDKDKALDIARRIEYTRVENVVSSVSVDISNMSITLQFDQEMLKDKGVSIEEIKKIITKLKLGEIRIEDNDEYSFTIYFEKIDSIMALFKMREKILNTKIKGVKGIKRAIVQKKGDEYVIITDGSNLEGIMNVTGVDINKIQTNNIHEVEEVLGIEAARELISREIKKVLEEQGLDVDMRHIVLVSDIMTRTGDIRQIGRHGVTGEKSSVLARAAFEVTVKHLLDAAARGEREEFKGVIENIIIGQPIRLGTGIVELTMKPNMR

B1: Rpo8 subunit of Sulfolobus acidocaldarius RNA polymerase (natural protein)
chain: MMQGTCKISSIEKGALKNLYVVKMDCDNDLKIEFDITKELSIFSKDEEVTFIISREKPEYSEKDFCAHGYLFLERQQEDGSFIDEISLYGLIVKILSKNGLINSKLFKMMDHVYYCVKKKA
notes: Rpo8, subunit of the Sulfolobus acidocaldarius RNA polymerase; holds the conserved GGLLM motif; Stood within the whole 13-subunit RNAP; source: part of the RNAP purified from Saci strain MW001
As for B1, in assay [1], the binding result is recorded as “binds”.

B2: ATV RIP (RNAP Inhibitory Protein, ORF145) of Acidianus two-tailed virus (natural protein, Acidianus two-tailed virus (ATV))
chain: MKNMLHPQKYETHVLDDLMEFYEGVIGYPEIDLRLAGEEAWLKGVNPELAEAVKKIIKTIRRYLEGSPYDGSEKPIPRYIIAEIFSQIAPEVQLLVNALDTEGKYGFLKHIKKLNLNSLAMLSKNYNENDKLWKELENEGYVYLE
notes: RIP (ORF145) of Acidianus two-tailed virus (ATV); 145 aa printed; residues 10–127 resolved in the RNAP–RIP structure; source: E. coli BL21 pLyS, purified (heat step 60 °C, Ni-column, TEV cleavage, second Ni-column); not shown: 6×His, N-terminal, cleaved
Turning to B2, the binding result in assay [2] and in assay [3] was “binds” in each case.

B3: Sso TFS4 (natural protein)
chain: MRFCPKCGSFLKVKGNKMVCSKCGYSDHDVEKVILKENVAHENDKTIIADGETIEGRVAISLCPRCGSVRAILLNKKKRLYRCMTCNFVYNI
notes: TFS4, paralogue of the transcript cleavage factor TFS; two zinc-ribbon domains ZR^N and ZR^C joined by a linker; expressed without tag; source: E. coli BL21 pLysS, purified (heat step 65 °C, HiTrap Q, Superose 12)
Take B3: the binding result in assay [4], in assay [5] and in assay [6] was “binds” throughout.
